± gives the uncertainty stated by the source.

A short description of the series: abundance fitness (aPCA) (normalised: wild type 0, dead -1); higher = more abundant; growth selection in yeast, the domain comes from the species named. Conditions: Homo sapiens.
For the substance “SAFB-like transcription modulator R37E, Q9NWH9”, the abundance fitness is -0.694 ± 0.036.

“SAFB-like transcription modulator R37G, Q9NWH9” returned an abundance fitness of -0.912 ± 0.047.

“SAFB-like transcription modulator R37H, Q9NWH9” yielded an abundance fitness of -0.648 ± 0.066.

On to “SAFB-like transcription modulator R37I, Q9NWH9”, for which the abundance fitness was -1.07 ± 0.16.

On to “SAFB-like transcription modulator R37K, Q9NWH9”, for which the abundance fitness was -0.283 ± 0.098.

The substance “SAFB-like transcription modulator R37L, Q9NWH9” gave an abundance fitness of -0.71 ± 0.045.

Substance “SAFB-like transcription modulator R37M, Q9NWH9” had an abundance fitness of -0.601 ± 0.064.

The substance “SAFB-like transcription modulator R37N, Q9NWH9” had an abundance fitness of -1.12 ± 0.17.

Consider “SAFB-like transcription modulator R37P, Q9NWH9”, for which the abundance fitness is -0.658 ± 0.094.

Turning to “SAFB-like transcription modulator R37Q, Q9NWH9”, the abundance fitness is -0.575 ± 0.13.

In turn, “SAFB-like transcription modulator R37S, Q9NWH9” returned an abundance fitness of -0.845 ± 0.057.

Turning to “SAFB-like transcription modulator R37T, Q9NWH9”, the abundance fitness was -0.751 ± 0.078.

As to “SAFB-like transcription modulator R37V, Q9NWH9”, the abundance fitness is -1.06 ± 0.08.

“SAFB-like transcription modulator R37W, Q9NWH9” had an abundance fitness of -1.26 ± 0.071.

The substance “SAFB-like transcription modulator R37Y, Q9NWH9” had an abundance fitness of -0.722 ± 0.16.

The substance “SAFB-like transcription modulator R51A, Q9NWH9” registered an abundance fitness of -0.437 ± 0.077.

With “SAFB-like transcription modulator R51D, Q9NWH9”, the abundance fitness is -0.783 ± 0.4.

As for “SAFB-like transcription modulator R51F, Q9NWH9”, the abundance fitness is -1.21 ± 0.38.

Take “SAFB-like transcription modulator R51G, Q9NWH9”: the abundance fitness was -0.574 ± 0.078.

In turn, “SAFB-like transcription modulator R51H, Q9NWH9” gave an abundance fitness of -0.814 ± 0.27.

Substance “SAFB-like transcription modulator R51I, Q9NWH9” displayed an abundance fitness of -0.542 ± 0.22.

Substance “SAFB-like transcription modulator R51K, Q9NWH9” showed an abundance fitness of -0.2 ± 0.065.

Substance “SAFB-like transcription modulator R51L, Q9NWH9” had an abundance fitness of -0.753 ± 0.068.

“SAFB-like transcription modulator R51M, Q9NWH9” yielded an abundance fitness of -0.506 ± 0.051.

“SAFB-like transcription modulator R51N, Q9NWH9” gave an abundance fitness of -0.403 ± 0.037.

Regarding “SAFB-like transcription modulator R51P, Q9NWH9”, the abundance fitness was -0.699 ± 0.13.

As to “SAFB-like transcription modulator R51S, Q9NWH9”, the abundance fitness was -0.511 ± 0.063.

Substance “SAFB-like transcription modulator R51T, Q9NWH9” gave an abundance fitness of -0.57 ± 0.13.

Turning to “SAFB-like transcription modulator R51V, Q9NWH9”, the abundance fitness is -0.73 ± 0.19.

Substance “SAFB-like transcription modulator R51W, Q9NWH9” came in with an abundance fitness of -1.1 ± 0.085.

“SAFB-like transcription modulator R51Y, Q9NWH9” had an abundance fitness of -1.01 ± 0.35.

“SAFB-like transcription modulator S32A, Q9NWH9” had an abundance fitness of -0.147 ± 0.062.

“SAFB-like transcription modulator S32C, Q9NWH9” gave an abundance fitness of -0.309 ± 0.067.

“SAFB-like transcription modulator S32D, Q9NWH9” showed an abundance fitness of 0.156 ± 0.073.

“SAFB-like transcription modulator S32E, Q9NWH9” gave an abundance fitness of -0.03 ± 0.05.

Regarding “SAFB-like transcription modulator S32F, Q9NWH9”, the abundance fitness was -0.125 ± 0.036.

As to “SAFB-like transcription modulator S32G, Q9NWH9”, the abundance fitness was -0.077 ± 0.051.

For “SAFB-like transcription modulator S32H, Q9NWH9”, the abundance fitness is -0.031 ± 0.055.

As to “SAFB-like transcription modulator S32K, Q9NWH9”, the abundance fitness was -0.246 ± 0.085.

“SAFB-like transcription modulator S32L, Q9NWH9” came in with an abundance fitness of -0.024 ± 0.04.

As to “SAFB-like transcription modulator S32M, Q9NWH9”, the abundance fitness was -0.051 ± 0.044.

With “SAFB-like transcription modulator S32N, Q9NWH9”, the abundance fitness was -0.407 ± 0.11.

“SAFB-like transcription modulator S32P, Q9NWH9”: the abundance fitness was -0.768 ± 0.058.

“SAFB-like transcription modulator S32Q, Q9NWH9” displayed an abundance fitness of -0.325 ± 0.097.

“SAFB-like transcription modulator S32R, Q9NWH9” showed an abundance fitness of -0.176 ± 0.045.

On to “SAFB-like transcription modulator S32T, Q9NWH9”, for which the abundance fitness was -0.048 ± 0.068.

As to “SAFB-like transcription modulator S32V, Q9NWH9”, the abundance fitness was -0.023 ± 0.051.

The substance “SAFB-like transcription modulator S32W, Q9NWH9” registered an abundance fitness of -0.108 ± 0.049.

“SAFB-like transcription modulator S32Y, Q9NWH9” came in with an abundance fitness of -0.173 ± 0.09.

Regarding “SAFB-like transcription modulator S50A, Q9NWH9”, the abundance fitness was determined as 0.015 ± 0.037.

On to “SAFB-like transcription modulator S50C, Q9NWH9”, for which the abundance fitness was -0.342 ± 0.082.

Take “SAFB-like transcription modulator S50D, Q9NWH9”: the abundance fitness is -0.109 ± 0.065.

The substance “SAFB-like transcription modulator S50E, Q9NWH9” displayed an abundance fitness of 0.087 ± 0.075.

In turn, “SAFB-like transcription modulator S50F, Q9NWH9” came in with an abundance fitness of -0.253 ± 0.052.

With “SAFB-like transcription modulator S50G, Q9NWH9”, the abundance fitness was found to be 0.028 ± 0.039.

For “SAFB-like transcription modulator S50H, Q9NWH9”, the abundance fitness was -0.353 ± 0.47.

Take “SAFB-like transcription modulator S50I, Q9NWH9”: the abundance fitness is -0.514 ± 0.29.

“SAFB-like transcription modulator S50K, Q9NWH9” registered an abundance fitness of -0.111 ± 0.083.

Consider “SAFB-like transcription modulator S50L, Q9NWH9”, for which the abundance fitness is -0.055 ± 0.075.

“SAFB-like transcription modulator S50P, Q9NWH9” yielded an abundance fitness of -0.521 ± 0.14.

“SAFB-like transcription modulator S50Q, Q9NWH9” displayed an abundance fitness of -0.486 ± 0.22.

Turning to “SAFB-like transcription modulator S50R, Q9NWH9”, the abundance fitness was -0.037 ± 0.062.

With “SAFB-like transcription modulator S50V, Q9NWH9”, the abundance fitness was -0.38 ± 0.072.

In the case of “SAFB-like transcription modulator T23A, Q9NWH9”, the abundance fitness is -0.063 ± 0.035.

Turning to “SAFB-like transcription modulator T23C, Q9NWH9”, the abundance fitness is -0.083 ± 0.042.

In turn, “SAFB-like transcription modulator T23D, Q9NWH9” yielded an abundance fitness of -0.093 ± 0.041.

The substance “SAFB-like transcription modulator T23E, Q9NWH9” returned an abundance fitness of -0.001 ± 0.034.

With “SAFB-like transcription modulator T23F, Q9NWH9”, the abundance fitness is -0.127 ± 0.035.

Turning to “SAFB-like transcription modulator T23G, Q9NWH9”, the abundance fitness was -0.072 ± 0.034.

“SAFB-like transcription modulator T23H, Q9NWH9” showed an abundance fitness of -0.281 ± 0.034.

For the substance “SAFB-like transcription modulator T23I, Q9NWH9”, the abundance fitness is -0.019 ± 0.033.

“SAFB-like transcription modulator T23L, Q9NWH9” had an abundance fitness of -0.184 ± 0.031.

In the case of “SAFB-like transcription modulator T23M, Q9NWH9”, the abundance fitness is -0.06 ± 0.038.

Consider “SAFB-like transcription modulator T23N, Q9NWH9”, for which the abundance fitness is -0.066 ± 0.035.

Substance “SAFB-like transcription modulator T23P, Q9NWH9” came in with an abundance fitness of -0.339 ± 0.031.

For the substance “SAFB-like transcription modulator T23Q, Q9NWH9”, the abundance fitness is -0.034 ± 0.046.

The substance “SAFB-like transcription modulator T23R, Q9NWH9” showed an abundance fitness of -0.178 ± 0.033.

Take “SAFB-like transcription modulator T23S, Q9NWH9”: the abundance fitness is -0.021 ± 0.032.

In turn, “SAFB-like transcription modulator T23V, Q9NWH9” gave an abundance fitness of -0.049 ± 0.031.

Regarding “SAFB-like transcription modulator T23W, Q9NWH9”, the abundance fitness is -0.175 ± 0.047.

“SAFB-like transcription modulator T23Y, Q9NWH9”: the abundance fitness is -0.083 ± 0.033.

The substance “SAFB-like transcription modulator T42A, Q9NWH9” displayed an abundance fitness of -0.045 ± 0.092.

The substance “SAFB-like transcription modulator T42C, Q9NWH9” came in with an abundance fitness of 0.078 ± 0.097.

“SAFB-like transcription modulator T42D, Q9NWH9” yielded an abundance fitness of 0.061 ± 0.092.

As for “SAFB-like transcription modulator T42E, Q9NWH9”, the abundance fitness is -0.107 ± 0.12.

As to “SAFB-like transcription modulator T42G, Q9NWH9”, the abundance fitness was -0.247 ± 0.085.

The substance “SAFB-like transcription modulator T42I, Q9NWH9” returned an abundance fitness of -0.682 ± 0.14.

For “SAFB-like transcription modulator T42K, Q9NWH9”, the abundance fitness is 0.035 ± 0.11.

“SAFB-like transcription modulator T42L, Q9NWH9” displayed an abundance fitness of -0.345 ± 0.069.

“SAFB-like transcription modulator T42M, Q9NWH9” had an abundance fitness of -0.104 ± 0.09.

“SAFB-like transcription modulator T42N, Q9NWH9” yielded an abundance fitness of -0.442 ± 0.16.
